Like-named read-outs stand apart in the source and are kept apart here.
Assays:
Assay in all cases: BLI
[1] = target: mTFPI-Fc (Fc-tagged mouse TFPI) (UniProt O54819); details: 2000 nM fragment, read at end of association (~145 s), parent: est. 0.03, read off a plot
[2] = target: TFPI-Fc (human IgG-Fc-tagged TFPI without the GPI anchor) (UniProt P10646); details: for response: parent: est. 0.0, read off a plot
[3] = target: mTFPI-Fc (Fc-tagged mouse TFPI) (mouse) (UniProt O54819)
[4] = target: Chicken TFPI-Fc (chicken); details: domain or fragment

Sequence of TFPI-Fc (human IgG-Fc-tagged TFPI without the GPI anchor) (P10646 29-209): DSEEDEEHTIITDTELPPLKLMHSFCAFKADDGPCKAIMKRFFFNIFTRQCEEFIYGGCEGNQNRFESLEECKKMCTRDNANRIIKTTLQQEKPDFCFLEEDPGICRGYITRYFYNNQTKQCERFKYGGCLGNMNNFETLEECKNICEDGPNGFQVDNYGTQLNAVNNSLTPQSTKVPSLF
Sequence of mTFPI-Fc (Fc-tagged mouse TFPI) (mouse) (O54819 29-217): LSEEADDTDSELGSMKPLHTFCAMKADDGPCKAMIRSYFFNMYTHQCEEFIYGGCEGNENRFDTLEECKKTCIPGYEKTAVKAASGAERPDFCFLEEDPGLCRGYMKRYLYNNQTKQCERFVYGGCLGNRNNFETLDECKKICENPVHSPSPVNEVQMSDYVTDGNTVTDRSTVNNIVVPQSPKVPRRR
Sequence of mTFPI-Fc (Fc-tagged mouse TFPI) (O54819 29-217): as above

TcdB11.2_(1285-1804) F1506S; D1511Y showed a response [1] of 0.74 nm.

Work on TcdB11.2_(1285-1804) F1597S; V1598L yielded a response [1] of 0.13 nm.

TcdB2.1_(1285-1804) S1495I gave a response [2] of 0.38 nm.

Substance “TcdB11.2_(1285-1804) F1506S; D1511Y; F1597S; V1598L” has a response [1] of 0.67 nm.

TcdB2.11_(1286-1805) showed a Kd ([3]; domain or fragment) of 90.9 nM, a koff ([3]; domain or fragment) of 0.00623 s⁻¹ and a Kd [4] of 205 nM. The koff [4] was 0.0165 s⁻¹, the Kd ([2]; domain or fragment) was 133 nM and the koff ([2]; domain or fragment) was 0.0109 s⁻¹.

“TcdB2.1_(1285-1804) L1505P; C1509Y; E1547K; N1596K; Q1599K” gave a response [2] of 0.1 nm.

“TcdB2.1_(1285-1804) S1495I; L1505P; C1509Y; N1596K; Q1599K” showed a response [2] of 0.66 nm.

“TcdB4.2_(1286-1805) (domain or fragment)” gave a Kd [3] of 24 nM and a Kd [2] of 50 nM.

For “TcdB2.1_(1285-1804) S1495I; L1505P; C1509Y; E1547K”, the response [2] was 0.62 nm.

— article PMC9646764
